Laboratory results reported in patent US20190119318A1.
“And” between values parts separate entries of the source, which are not always exact repeats. Equal entries are not always repeated.

How the values were obtained:
[1] = molecular target: human polyclonal IgG (Gammanorm) (human); assay: column DBC; base A62a; ligand 9.7 mg/ml
[2] = molecular target: human polyclonal IgG (Gammanorm) (human); assay: SPR; after 200 CIP cycles 0.5 M NaOH
[3] = molecular target: human polyclonal IgG (Gammanorm) (human); assay: SPR; after 300 CIP cycles 0.5 M NaOH
[4] = molecular target: human polyclonal IgG (Gammanorm) (human); assay: column DBC; base A28; ligand 15.8 mg/ml
[5] = molecular target: human polyclonal IgG (Gammanorm) (human); assay: column DBC; base C3; ligand 9.0 mg/ml
[6] = molecular target: human polyclonal IgG (Gammanorm) (human); assay: column DBC; base A29; ligand 7.3 mg/ml
[7] = molecular target: human polyclonal IgG (Gammanorm) (human); assay: column DBC; base I1; ligand 6.1 mg/ml
[8] = molecular target: human polyclonal IgG (Gammanorm) (human); assay: column DBC; base A63a; ligand 6.1 mg/ml
[9] = molecular target: human polyclonal IgG (Gammanorm) (human); assay: column DBC; base A32; ligand 13.3 mg/ml
[10] = molecular target: human polyclonal IgG (Gammanorm) (human); assay: column DBC; base A65a; ligand 13.1 mg/ml
[11] = molecular target: human polyclonal IgG (Gammanorm) (human); assay: column DBC; base A38; ligand 11.34 mg/ml
[12] = molecular target: human polyclonal IgG (Gammanorm) (human); assay: column DBC; base C1; ligand 10.8 mg/ml
[13] = molecular target: human polyclonal IgG (Gammanorm) (human); assay: column DBC; base A41; ligand 5.0 mg/ml
[14] = molecular target: human polyclonal IgG (Gammanorm) (human); assay: column DBC; base H40; ligand 9.1 mg/ml
[15] = molecular target: human polyclonal IgG (Gammanorm) (human); assay: column DBC; base A62a; ligand 7.5 mg/ml
[16] = molecular target: human polyclonal IgG (Gammanorm) (human); assay: column DBC; base A40; ligand 11.0 mg/ml
[17] = molecular target: human polyclonal IgG (Gammanorm) (human); assay: SPR; after 100 CIP cycles 1 M NaOH
[18] = molecular target: human polyclonal IgG (Gammanorm) (human); assay: column DBC; base A65b; ligand 8.8 mg/ml
[19] = molecular target: human polyclonal IgG (Gammanorm) (human); assay: column DBC; base I1; ligand 11.2 mg/ml
[20] = molecular target: human polyclonal IgG (Gammanorm) (human); assay: column DBC; base A40; ligand 6.1 mg/ml
[21] = molecular target: human polyclonal IgG (Gammanorm) (human); assay: column DBC; base C4; ligand 10.1 mg/ml
[22] = molecular target: human polyclonal IgG (Gammanorm) (human); assay: column DBC; base A42; ligand […]
[23] = molecular target: human polyclonal IgG (Gammanorm) (human); assay: column DBC; base A42; ligand 6.72 mg/ml
[24] = molecular target: human polyclonal IgG (Gammanorm) (human); assay: column DBC; ligand 13 mg/ml; before incubation in 1 M NaOH
[25] = molecular target: human polyclonal IgG (Gammanorm) (human); assay: column DBC; base C3; ligand […]; settings: ligand content 5.9 mg/ml
[26] = molecular target: human polyclonal IgG (Gammanorm) (human); assay: column DBC; base A38; ligand 7.45 mg/ml
[27] = molecular target: human polyclonal IgG (Gammanorm) (human); assay: column DBC; ligand 16 mg/ml; before incubation in 1 M NaOH
[28] = molecular target: human polyclonal IgG (Gammanorm) (human); assay: column DBC; base C1; ligand […]
[29] = molecular target: human polyclonal IgG (Gammanorm) (human); assay: column DBC; base A43; ligand 10.51 mg/ml
[30] = molecular target: human polyclonal IgG (Gammanorm) (human); assay: SPR; vs reference Zvar4; 1 M NaOH
[31] = molecular target: human polyclonal IgG (Gammanorm) (human); assay: column DBC; base A38; ligand 7.5 mg/ml
[32] = molecular target: human polyclonal IgG (Gammanorm) (human); assay: column DBC; base A39; ligand 6.96 mg/ml
[33] = molecular target: human polyclonal IgG (Gammanorm) (human); assay: column DBC; base A40; ligand 11.03 mg/ml
[34] = molecular target: human polyclonal IgG (Gammanorm) (human); assay: column DBC; base A63a; ligand 6.6 mg/ml
[35] = molecular target: human polyclonal IgG (Gammanorm) (human); assay: column DBC; base B5; ligand 6.3 mg/ml
[36] = molecular target: human polyclonal IgG (Gammanorm) (human); assay: column DBC; base A20; ligand 10.6 mg/ml

“Zvar(Q9A,N11E,Q40V,A42K,N43A,L44I)4 (designed binder)” showed a Qb10% 2.4 min [1] of 48 mg/mL, a Qb10% 6 min [1] of 60 mg/mL and a remaining capacity 200 cycles [2] of 74%. For the same substance, the remaining capacity 300 cycles [3] was 57%, the Qb10% 2.4 min [4] was 37 mg/mL and the Qb10% 6 min [4] was 67 mg/mL. For the same substance, the Qb10% 2.4 min [5] was 49 mg/mL, the Qb10% 6 min [5] was 62 mg/mL and the Qb10% 2.4 min [6] was 36.3 mg/mL. It also gave a Qb10% 6 min [6] of 51.8 mg/mL, a Qb10% 2.4 min [7] of 45 mg/mL and a Qb10% 6 min [7] of 51 mg/mL. It also gave a Qb10% 2.4 min [8] of 39 mg/mL, a Qb10% 6 min [8] of 44 mg/mL and a Qb10% 2.4 min [9] of 37 mg/mL. For the same substance, the Qb10% 6 min [9] was 66 mg/mL, the Qb10% 2.4 min [10] was 56 mg/mL and the Qb10% 6 min [10] was 64 mg/mL. It also gave a Qb10% 2.4 min [11] of 48.1 mg/mL, a Qb10% 6 min [11] of 72.8 mg/mL and a Qb10% 2.4 min [12] of 43 mg/mL. For the same substance, the Qb10% 6 min [12] was 60 mg/mL, the Qb10% 2.4 min [13] was 35.6 mg/mL and the Qb10% 6 min [13] was 46 mg/mL. The Qb10% 2.4 min [14] was 52 mg/mL, the Qb10% 6 min [14] was 67 mg/mL and the Qb10% 2.4 min [15] was 47 mg/mL. The Qb10% 6 min [15] was 56 mg/mL, the Qb10% 2.4 min [16] was 55 mg/mL and the Qb10% 6 min [16] was 74 mg/mL. For the same substance, the remaining capacity 100 cycles [17] was 56%, the Qb10% 2.4 min [18] was 49 mg/mL and the Qb10% 6 min [18] was 56 mg/mL. It also gave a Qb10% 2.4 min [19] of 57 mg/mL, a Qb10% 6 min [19] of 68 mg/mL and a Qb10% 2.4 min [20] of 49 mg/mL. For the same substance, the Qb10% 6 min [20] was 59 mg/mL, the Qb10% 2.4 min [21] was 55 mg/mL and the Qb10% 6 min [21] was 63 mg/mL. For the same substance, the Qb10% 2.4 min [22] was 32.2 mg/mL, the Qb10% 6 min [22] was 57.8 mg/mL and the Qb10% 2.4 min [23] was 33.6 mg/mL. The Qb10% 6 min [23] was 50 mg/mL, the Qb10%, 6 min, before incubation [24] was 79 mg/mL and the Qb10% 2.4 min [25] was 44 mg/mL. It also gave a Qb10% 6 min [25] of 52 mg/mL, a Qb10% 2.4 min [26] of 44.4 mg/mL and a Qb10% 6 min [26] of 58.2 mg/mL. For the same substance, the Qb10%, 6 min, before incubation [27] was 73 mg/mL, the Qb10% 2.4 min [28] was 38 mg/mL and the Qb10% 6 min [28] was 47 mg/mL. It also gave a Qb10% 2.4 min [29] of 31.8 mg/mL, a Qb10% 6 min [29] of 58 mg/mL and a capacity relative to ref. 100 cycles [30] of 2.07. For the same substance, the Qb10% 2.4 min [31] was 44 mg/mL, the Qb10% 6 min [31] was 58 mg/mL and the Qb10% 2.4 min [32] was 41.9 mg/mL. It also gave a Qb10% 6 min [32] of 54.7 mg/mL, a Qb10% 2.4 min [33] of 55 mg/mL and a Qb10% 6 min [33] of 73.8 mg/mL. It also gave a Qb10% 2.4 min [34] of 40 mg/mL, a Qb10% 6 min [34] of 44 mg/mL and a Qb10% 2.4 min [35] of 32 mg/mL. For the same substance, the Qb10% 6 min [35] was 38 mg/mL, the Qb10% 2.4 min [36] was 50.7 mg/mL and 51 mg/mL and the Qb10% 6 min [36] was 70.1 mg/mL and 70 mg/mL.
